Test results published in paper PMC6592955.

Key:
Assay in all cases: FRET or BRET; 2pFLIM-FRET in single dendritic spines of CA1 pyramidal neurons, organotypic hippocampal slices; train of two-photon glutamate uncaging (0.49 Hz, 30 pulses, sLTP protocol) without extracellular Mg^2+; room temperature (25–27 °C); 128 ms/frame; decay after the train fitted with a double exponential; T286A in slices of Camk2a^T286A knock-in mice
[1] = target: mEGFP-CaMKIIα^T286A (Rattus norvegicus) (UniProt P11275)
[2] = target: mEGFP-CaMKIIα^T305A/T306A (Rattus norvegicus) (UniProt P11275)
[3] = target: mEGFP-CaMKIIα (wildtype) (Rattus norvegicus) (UniProt P11275)

| Substance | dissociation time constant (tau fast, decay after the train) [1] | dissociation time constant (tau fast, decay after the train) [2] | dissociation time constant (tau fast, decay after the train) [3] |
| --- | --- | --- | --- |
| mCherry-CaM (from UniProt P0DP26 1-149) (natural protein) | 1 s | 9.3 s |  |
| mCherry-CaM (from UniProt P0DP26 1-149) (natural protein; other documents disagree on this pair) |  |  | 3.2 s |
